Tests used:
[1] = molecular target: T1, human carcinoembryonic antigen (hCEA) expressed on cells (human, UniProt P06731 35-685); assay: cell binding for one hour at 5x10^3 v.p. per cell, hexon qPCR; hCEA up-regulated by irradiation
T1 construct: whole, on cells; also called hCEA on MC38CEA cells; hCEA on PC-3, LS174T, A549, HS766T cells
T1 sequence (looked up): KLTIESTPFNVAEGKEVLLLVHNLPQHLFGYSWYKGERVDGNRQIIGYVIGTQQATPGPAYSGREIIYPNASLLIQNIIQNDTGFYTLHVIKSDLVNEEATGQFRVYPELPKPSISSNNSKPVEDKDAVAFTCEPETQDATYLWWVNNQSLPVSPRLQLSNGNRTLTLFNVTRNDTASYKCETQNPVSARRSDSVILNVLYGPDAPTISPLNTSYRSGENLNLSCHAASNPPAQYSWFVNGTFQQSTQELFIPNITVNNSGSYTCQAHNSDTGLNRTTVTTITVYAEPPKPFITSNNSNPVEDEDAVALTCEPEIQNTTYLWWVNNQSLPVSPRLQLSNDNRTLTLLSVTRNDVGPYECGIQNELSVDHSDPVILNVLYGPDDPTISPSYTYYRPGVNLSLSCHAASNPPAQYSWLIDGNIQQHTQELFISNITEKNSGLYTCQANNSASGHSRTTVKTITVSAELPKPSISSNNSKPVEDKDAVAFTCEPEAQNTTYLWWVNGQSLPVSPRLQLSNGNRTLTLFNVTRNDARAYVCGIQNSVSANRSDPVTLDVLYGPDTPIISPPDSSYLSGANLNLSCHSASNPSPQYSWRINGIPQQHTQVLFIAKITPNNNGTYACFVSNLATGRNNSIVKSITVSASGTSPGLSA

[2] = molecular target: T1, human carcinoembryonic antigen (hCEA) …; assay: cell-based or functional assay
[3] = molecular target: T2, purified human carcinoembryonic antigen (hCEA) protein (human, UniProt P06731 35-685, limits assumed); assay: dilution ELISA, hCEA coated on plate, VHH detected with HRP/anti-E-tag mAb
T2 construct: Bought protein coated on ELISA plates or used in solution to pre-incubate the virus; also called human CEA protein; recombinant hCEA protein (ab742)
T2 sequence (looked up): T1 sequence (looked up)
Description: Nunc Maxisorb plates (Nunc) were coated overnight at 4° C. with 1 μg/ml human CEA protein (Abeam, Cambridge, Mass.). The plates were blocked in binding buffer containing 5% w/v non-fat milk in Tris-buffered saline (TBS). […] Plates were incubated at 25° C. for one hour and then washed three times with TBS. Bound VHHs were detected with HRP/anti-E-tag mAb (Bethyl Laboratories, Montgomery, Tex.).
The plates for enzyme-linked immunosorbent assay were coated with purified hCEA protein and then purified VHH were added in wells at various concentrations. (FIG. 2A) Bound VHHs were detected with HRP/anti-E-tag mAb. […] The EC₅₀ values are the VHH concentration that produced 50% maximum signal on the ELISAs.

[4] = molecular target: T2, purified human carcinoembryonic antigen …; assay: ELISA, hCEA coated on plate, virions detected with anti-adenovirus goat Ab
[5] = molecular target: T1, human carcinoembryonic antigen (hCEA) …; assay: cell binding for one hour, Ad hexon gene copy number by qPCR, MC38CEA against MC38 cells
[6] = molecular target: T1, human carcinoembryonic antigen (hCEA) …; assay: cell binding for one hour at 1x10^3 vp per cell, Ad hexon gene copy number per 20 ng total DNA by qPCR

B1: AdB2Luc (Ad5 vector displaying anti-hCEA fiber-fibritin-VHH chimera, clone B2) (other)
chain: MKRARPSEDTFNPVYPYDTETGPPTVPFLTPPFVSPNGFQESPPGVLSLRLSEPLVTSNGMLALKMGNGLSLDEAGNLTSQNVYSRLNEIDTKQTTVESDISAIKTSIGYPGNNSIITSVNTNTDNIASINLELNQSGGIKQRLTVIETSIGSDDIPSSIKGQIKDNTTSIESLNGIVGENTSSGLRANVSWLNQIVGTDSSGGQPSPPGSLLNRVSTIETSVSGLNNAVQNLQVEIGNNSAGIKGQVVALNTLVNGTNPNGSTVEERGLTNSIKANETNIASVTQEVNTAKGNISSLQGDVQALQEAGYIPEAPRDGQAYVRKDGEWVFLSTFLSPAGGGGSQVQLVETGGGLVQPGGSLRLSCAASESIFSTYAMGWYRQAPGKQRELVAAITTNDIANYADSVKGRFTISRDNAKNTVYLQMNSLNPEDTAVYYCNAIFPPYNYWGQGTQVTVSSEPKTPKPQ
notes: domain: N-terminal Ad5 fiber tail region;domain: entire fibritin protein with the trimerizing foldon domain; The chimeric fiber stood in the assay on whole purified Ad5 virus particles (other capsid proteins present); also called FF-VHH B2; FF-B2
B1 was tested, and the “fold increase of Ad hexon gene copy number in irradiated (6 Gy) against mock-treated A549 cells” value [1] was 5.1 fold, the “fold increase of Ad hexon gene copy number in irradiated (6 Gy) against mock-treated LS174T cells” value [1] was 3.2 fold and the “fold increase of Ad hexon gene copy number in irradiated (6 Gy) against mock-treated PC-3 cells” value [1] was 2.8 fold. For the same binder, the “reporter gene (Luc) expression in hCEA-positive MC38CEA cells in comparison with MC38 cells” value [2] was greater than 55 fold.

B2: JJB-B2 (VHH)
VHH: QVQLVETGGGLVQPGGSLRLSCAASESIFSTYAMGWYRQAPGKQRELVAAITTNDIANYADSVKGRFTISRDNAKNTVYLQMNSLNPEDTAVYYCNAIFPPYNYWGQGTQVTVSS
notes: Alpaca anti-hCEA VHH, expressed and purified as a thioredoxin fusion protein; also called clone B2; B2 sdAb; not shown: Thioredoxin fusion partner, E-tag and any linkers
In the case of B2, the EC50 [3] is reported as roughly 0.2 nM.

B3: Ad5Luc (Ad5 vector with wild-type Ad5 fiber) (other)
chain: MKRARPSEDTFNPVYPYDTETGPPTVPFLTPPFVSPNGFQESPPGVLSLRLSEPLVTSNGMLALKMGNGLSLDEAGNLTSQNVTTVSPPLKKTKSNINLEISAPLTVTSEALTVAAAAPLMVAGNTLTMQSQAPLTVHDSKLSIATQGPLTVSEGKLALQTSGPLTTTDSSTLTITASPPLTTATGSLGIDLKEPIYTQNGKLGLKYGAPLHVTDDLNTLTVATGPGVTINNTSLQTKVTGALGFDSQGNMQLNVAGGLRIDSQNRRLILDVSYPFDAQNQLNLRLGQGPLFINSAHNLDINYNKGLYLFTASNNSKKLEVNLSTAKGLMFDATAIAINAGDGLEFGSPNAPNTNPLKTKIGHGLEFDSNKAMVPKLGTGLSFDSTGAITVGNKNNDKLTLWTTPAPSPNCRLNAEKDAKLTLVLTKCGSQILATVSVLAVKGSLAPISGTVQSAHLIIRFDENGVLLNNSFLDPEYWNFRNGDLTEGTAYTNAVGFMPNLSAYPKSHGKTAKSNIVSQVYLNGDKTKPVTLTITLNGTQETGDTTPSAYSMSFSWDWSGHNYINEIFATSSYTFSYIAQE
notes: Wild-type fiber on whole purified Ad5 virus particles; control vector; also called wild-type Ad5Luc; fiber unmodified control Ad5Luc vector
B3: no binding [4].

B4: Ad.CXCR4E1 (conditionally replicative Ad5 with wild-type Ad5 fiber) (other)
chain: B3 chain
notes: Wild-type fiber on whole purified virus particles; control vector; also called control CRAd
B4: no binding (tested: 1x10^3 vp per cell) [5].

B5: AdC17Luc (Ad5 vector displaying anti-hCEA fiber-fibritin-VHH chimera, clone C17) (other)
chain: MKRARPSEDTFNPVYPYDTETGPPTVPFLTPPFVSPNGFQESPPGVLSLRLSEPLVTSNGMLALKMGNGLSLDEAGNLTSQNVYSRLNEIDTKQTTVESDISAIKTSIGYPGNNSIITSVNTNTDNIASINLELNQSGGIKQRLTVIETSIGSDDIPSSIKGQIKDNTTSIESLNGIVGENTSSGLRANVSWLNQIVGTDSSGGQPSPPGSLLNRVSTIETSVSGLNNAVQNLQVEIGNNSAGIKGQVVALNTLVNGTNPNGSTVEERGLTNSIKANETNIASVTQEVNTAKGNISSLQGDVQALQEAGYIPEAPRDGQAYVRKDGEWVFLSTFLSPAGGGGSEVQLVESGGGFVQAGESLTLSCTSSTLSCTSSTLTFTPYRMAWYRQAPGKQRDLVADISSGDGRTTNYADFAKGRFTISRDNIKNTVFLRMTNLKPEDTAVYYCNTFVSFVGIARSWGQGTQVTVSSEP
B5 was tested, and the “Luc expression in hCEA+ cells (MC38CEA against MC38)” value [2] was roughly 4 fold.

B6: JJB-A3 (VHH)
VHH: QVQLVETGGGLVQPGGSLRLSCAASGRISDINAMGWYRQAPGKQRELVAAITSVGSNYVDSVKGRFTISKDNAKNTVYLQMYSLNPEDTAVYYCNTQCGTWLVCDGRDQWGKGTLVTVSS
notes: Alpaca anti-hCEA VHH, expressed and purified as a thioredoxin fusion protein; the methods name only JJB-A3; not shown: Thioredoxin fusion partner, E-tag and any linkers
Work on B6 yielded an EC50 [3] of roughly 0.15 nM.

B7: JJB-B5 (VHH)
VHH: QVQLVETGGGLVQPGGSLRPSCTASGSIFSIYAMGWYRQASGKQRELVALITRDEVFNYADSVKGRFTISRDNAKDTVYLQMNSLKPEDTAVYYCWVETVNDHYNSGVEDYWGQGTQVTVSS
notes: Alpaca anti-hCEA VHH, expressed and purified as a thioredoxin fusion protein; not shown: Thioredoxin fusion partner, E-tag and any linkers
With B7 the EC50 [3] was roughly 50 nM.

B8: JJB-D1 (VHH)
VHH: QVQLVESGGLVQAGGSLRPSCAASGSIFLQNAMGWYRQVPGKQRELVAAITSVDSTNYADSVKGRFTISRDNAKNTVYLQMNSLKPEDTAVYYCNAPWNSDYHWGKGTLVTVSS
notes: as for B7
Binder B8 has an EC50 [3] of roughly 1 nM.

B9: AdVHH122Luc (Ad5 vector displaying anti-EGFR fiber-fibritin-VHH chimera, clone VHH122) (other)
chain: MKRARPSEDTFNPVYPYDTETGPPTVPFLTPPFVSPNGFQESPPGVLSLRLSEPLVTSNGMLALKMGNGLSLDEAGNLTSQNVYSRLNEIDTKQTTVESDISAIKTSIGYPGNNSIITSVNTNTDNIASINLELNQSGGIKQRLTVIETSIGSDDIPSSIKGQIKDNTTSIESLNGIVGENTSSGLRANVSWLNQIVGTDSSGGQPSPPGSLLNRVSTIETSVSGLNNAVQNLQVEIGNNSAGIKGQVVALNTLVNGTNPNGSTVEERGLTNSIKANETNIASVTQEVNTAKGNISSLQGDVQALQEAGYIPEAPRDGQAYVRKDGEWVFLSTFLSPAGGGGSEVQLQESGGGLVQAGDSLRLSCLVSGRSFNSYTMGWFRQAPGKEREFVAAILWSGPTTYYADSVKGRFTISRDNAKNTVYLQMNSLKPEDTAVYYCAAALGVLVLAPGNVYSYWGQGTQVTVSS
notes: domain: N-terminal Ad5 fiber tail region;domain: entire fibritin protein with the trimerizing foldon domain; Isogenic control vector; chimeric fiber on whole purified Ad5 virus particles; also called FF-VHH122
B9: no binding [4].

B10: Ad.CXCR4E1.B2 (conditionally replicative Ad5 with fiber-fibritin chimera expressing anti-hCEA sdAb clone B2) (other)
chain: MKRARPSEDTFNPVYPYDTETGPPTVPFLTPPFVSPNGFQESPPGVLSLRLSEPLVTSNGMLALKMGNGLSLDEAGNLTSQNVYSRLNEIDTKQTTVESDISAIKTSIGYPGNNSIITSVNTNTDNIASINLELNQSGGIKQRLTVIETSIGSDDIPSSIKGQIKDNTTSIESLNGIVGENTSSGLRANVSWLNQIVGTDSSGGQPSPPGSLLNRVSTIETSVSGLNNAVQNLQVEIGNNSAGIKGQVVALNTLVNGTNPNGSTVEERGLTNSIKANETNIASVTQEVNTAKGNISSLQGDVQALQEAGYIPEAPRDGQAYVRKDGEWVFLSTFLSPAGGGSQVQLVETGGGLVQPGGSLRLSCAASESIFSTYAMGWYRQAPGKQRELVAAITTNDIANYADSVKGRFTISRDNAKNTVYLQMNSLNPEDTAVYYCNAIFPPYNYWGQGTQVTVSSEPKTPKPQ
notes: domain: N-terminal Ad5 fiber tail region;domain: trimerizing domain of the fibritin protein; Chimeric fiber on whole purified virus particles; also called FFB2; fiber-fibritin-B2
With B10 the “fold binding to hCEA(+) MC38CEA cells against hCEA(-) MC38 cells” value [6] was roughly 25 fold.
